Common to all, as to test: two-hybrid; yeast strains L40 or PJ69-4A; β-galactosidase quantitative liquid assays, fold activation with respect to the empty vector, at least four independent protein extracts
For assay [1], the target named is Cno-MP, LexA bait fusion (Drosophila) (UniProt Q24279).
For assay [2], the target named is Cno NH, LexA bait fusion (Drosophila).
The target in assay [3] is DSH-FLN, LexA bait fusion (Drosophila) (UniProt P51140).
Sequence of UniProt P51140 (P51140 whole entry, the tested form may be a part): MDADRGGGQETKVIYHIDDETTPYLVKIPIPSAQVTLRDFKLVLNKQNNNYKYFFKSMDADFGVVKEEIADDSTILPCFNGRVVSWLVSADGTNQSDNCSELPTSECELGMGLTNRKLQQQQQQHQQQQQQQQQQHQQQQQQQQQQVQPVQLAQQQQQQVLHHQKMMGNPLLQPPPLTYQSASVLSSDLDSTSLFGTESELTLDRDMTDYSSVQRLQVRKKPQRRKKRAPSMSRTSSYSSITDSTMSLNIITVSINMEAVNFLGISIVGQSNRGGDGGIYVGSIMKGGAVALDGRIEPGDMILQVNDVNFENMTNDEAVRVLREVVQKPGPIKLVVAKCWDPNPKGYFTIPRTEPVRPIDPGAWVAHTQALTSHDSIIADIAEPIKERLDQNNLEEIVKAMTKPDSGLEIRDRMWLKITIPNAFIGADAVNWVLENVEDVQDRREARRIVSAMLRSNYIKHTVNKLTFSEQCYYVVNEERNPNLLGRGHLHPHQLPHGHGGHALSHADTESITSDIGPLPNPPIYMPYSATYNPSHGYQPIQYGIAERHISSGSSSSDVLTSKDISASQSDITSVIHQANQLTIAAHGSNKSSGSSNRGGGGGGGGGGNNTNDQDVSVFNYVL

Sequence of UniProt Q24279 (Q24279 entry or part of it): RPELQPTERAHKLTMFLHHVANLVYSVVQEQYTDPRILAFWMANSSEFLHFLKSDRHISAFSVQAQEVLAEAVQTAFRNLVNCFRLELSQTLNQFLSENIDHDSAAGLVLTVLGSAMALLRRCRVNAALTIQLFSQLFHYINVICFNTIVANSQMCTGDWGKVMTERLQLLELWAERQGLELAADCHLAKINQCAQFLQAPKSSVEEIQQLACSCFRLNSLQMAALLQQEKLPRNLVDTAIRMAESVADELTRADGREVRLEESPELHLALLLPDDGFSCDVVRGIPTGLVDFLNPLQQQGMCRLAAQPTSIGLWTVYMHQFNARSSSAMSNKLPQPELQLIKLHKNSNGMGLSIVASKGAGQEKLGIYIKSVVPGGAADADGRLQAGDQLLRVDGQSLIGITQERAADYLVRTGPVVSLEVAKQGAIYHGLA

For “Notch-ICN1, prey fusion (domain or fragment)”, the fold activation (β-galactosidase, against the empty vector) (fold activation) in assay [1] and in assay [2] was 40 in each case.

With “Notch-ICN2, prey fusion (domain or fragment)”, the figures for the fold activation (β-galactosidase, against the empty vector) (fold activation) in assay [1], in assay [3] and in assay [2] were 20, 3 and 20, respectively.
